Source: the supplement of paper PMC12636428

test system: Saccharomyces cerevisiae; assay: transcriptional activation domain activity (GFP:mCherry ratio, weighted mean of sorted bins, harmonized to initial dataset scale) (arbitrary fluorescence ratio units); higher = stronger transcriptional activation; details: beta-estradiol 1 µM; induction time 4 h
How it was run: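 Values are activation activity, found as the read-weighted mean of bin median fluorescence, averaged across barcodes and then mapped linearly onto the initial dataset scale. Barcoded protein tiles fused to an estradiol-inducible synthetic transcription factor were integrated at the URA3 locus of GFP-reporter yeast diploids. Cells were induced for 4 hours at 30 °C with 1 uM beta-estradiol in SC, sorted into 8 bins by GFP:mCherry ratio, and barcode-sequenced, with tiles under 50 reads discarded.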

Sequence | transcriptional activation domain activity
EQLCMPIRRNDMRRRVELVRRCLLAALPSLPFWNEVCLWSTLNVFMSLLQDFF | 82700
EQPSAPAAAANSEEPDNKEAEKTETGAAAENKEAVANNGSESAEKEPAETSAS | 23500
EQQCICNYITSDPIWLIPLLGLLHRRLMYKVRLIYPFHISLANAFVTVCFHWL | 80900
EQRAEGVGERRGEGGGEAQRDGAADARRHERAAEGPVRHGERRREVQEGVQGV | 23500
EQSGNGDINNGTRNDIEINLYRSHPTMIMSKVMKREVKPLSENYIIIQDCFLK | 62500
EQVAPKFWKHGLFWAMCNEGMWLKELEFYYMINYYFKYLELLDTVFLALKKKP | 40200
EQWECTKLVLFSHFTIELPIIWLFHPVAEALGMTTYQVPFPSLQKMAIQIFLF | 39400
EQYKLVCEALHERATFLEIAPYLAHQLPIMLPLYKWWQLPYYWAGCKVYDLLA | 43400
ERAVVGLLRICLILATRPSLRDQIFVSFDLLAGLPPAIANAVAEQVVAGLILV | 35700
ERDDSRSERNVDDGDRRRAGRRRRDSRSSDDEHTTSRRRGGKDHADREDSDRR | 29100
ERDEEEDEDEEEEDEGKRRKRRGARSTAAISKRETGKAKDETREDPESRKKRG | 23600
ERDKRDDKDRERRHHKRSRHHDSDEERREGSSSRRHRHKSRRSKSPSSKVNEE | 22800
ERDMELLVGHFDFMAKEAFLADSISLCSTEEELERRLDTPVIQEDSPVMDNNT | 62900
ERDRKEQNGGGEGGRGGRHKKGARGAERRGHGSGSEGGGKAGANPERRTGGRG | < 6570
EREEEEEEEEEEEEVVVVAKAKANEREREEEAEEAEEVEEVVAKSRKAKGKAK | 16600
EREERRRQERAKEEAEGGNRRGKKNKGEAGGGKRGRGKRPRRGRRKGQRARGG | 34400
EREILWRAYLRLIKHVNSIFKIRIAYEWTEDYVIKYLWSAAGYCLISIPILFT | 77100
EREKKKGREKEEKGGKERRGKKGRGKEEGKKRRKRGRKERKEGRKGEEGKRGR | 33600
ERERDRDRDRERDRDRDRERAREREHERNHERRKRRRERDRERRRGKSAAAAA | 33800
EREREKREEREREAARLRREAEEREREEHEGRKREKREEPEEREAEEREREVE | 33200
EREVRDEERTRRNREKRNRKKGKGGKGGKEDGGAGGGGGGGNVKARVGMVGDG | 15100

Sequence | transcriptional activation domain activity
ERGKRKEGRKEEEGKEGEKGKEEKREEKRRGKRGEEKREGKKKEERRRGRRRR | 20800
ERGTEEREKEREEGMRGRRGKRNRGRWKREGEEEGGEEEGRKGRKEKGRQGAE | 47700
ERGTGGQGRRAEEEEAQGGDGGHKTKERGRDEEAGAGGGPAEAGAGAGAKGRT | 28600
ERHLLPGNIFWAVAFGWWLSGCCMIVSGLLYLVPMGGGRYGKLIYGLGWYLAW | 65400
ERKDREKMKAKLKEAKREKQRKERAREREKERERKRKEKEKEKKRKEKERERK | 38000
ERKEAKEQTRRETESKARRGADKEGSEENREDEEGEKKERTSESTDKQKSRRT | 33700
ERKRERREKKEKEREREQREEREKSKERSGKKNGKDSEKRRERRGEKGSEERR | 32800
ERKRKREMAGEDDGRAEAKKVKKEKKEGEKEREKKGKKERKGKKEKEKRKKDM | 16800
ERKRRAKQKEKEERKKKKKKNANSKDARQRSESSSRREKRKDEDSDDEEEEGG | 35700
ERLPVDLAVLCTIVEKLFGLAIMTARHRDLGSLHGVLLPRTWILSLWGDFLRF | 71700
ERLPVDLAVVCTIVERLFGLAVMTARLRKLGSLHGVLLPRTWVLALWRDFIRF | 67500
ERPFFALVVCGEYAHLSPETRVKVAQLLLRCLPAPNLSLLVYLLSFLSHFQHA | 62200
ERPREKKEHSRRHRDDEEKGRRRRHRSRSRSRDRRERRRERSRSRERRRGGDE | 13000
ERQGRGQREERRREDHSRTRVPQRQGQEQREERRREDQYSRQEQQSQGLGQRK | 42100
ERRMGTCRSFHLRVGLPQLYAARLLIKASLDVRRLSVWQLGQLVWSIQKFSRQ | 32200
ERRRKDQRKREKEEEERCHQEGREKKGEEHRREGDEERGRKEQETHASQEANG | 29600
ERSILWRAYLRLISHINSIYKIRIAYEWTEDFVIKYLWSAAGYCLISVPVLLT | 54200
ERSLGGGSLYTGKAVHTDPEMSEVHATEYTRGRLRKFLCLAFGEVASVLRLDK | 16600
ERVGERRGSGKTERQRAHDAPEREGARGEKGRRARGTNGEGRGGEEREVRQEG | 25600
ERVIGGIQEDLLLIKTFLTRLSLSHHIHNFHADSWSLGHLASLSWYSFMVWFL | 80000
ESAAASSNQSSAPASAPTPNAPPSTANAEGGENKPKPSRRRGRGGGGGGQKQN | 27400

Sequence | transcriptional activation domain activity
ESAKDKENAKGRKEAEKKKNKEEKERVKKESRERERESRRSAEGRKRPALASL | 25400
ESAPAAEDKPAEETKPAEAEEAPKAEEKKEEVKPIEEGHLNHKAQGLSFPKNL | < 6570
ESASAAEEPAAKSKRGKKSQAEPEEEELSAVDEEHEPAPKSKRSKKSKAAVET | 13800
ESASTNTSSALNCQSYTNNQDIMDILFQVTSGSVWDEFFVRSGNGNEGESSYD | 86700
ESAVKFENSGPFINPSRASTLLVSRDSNRIILSGTTARGKTAVFLTTGLLVES | 63200
ESCDGSLWLCPFSQPVRPSLIKLVSRGIDRRRITSLLFMLWLVCWAVSLLFSK | 59900
ESDAGEGDKLSKKQKAESGKAVKPEATEGADKKDKKKDKKEKKKDKEAPAKAD | < 6570
ESDEEAAVEAEAPKKKGRAKKVKPESEVDHEPAFEQPKKKGRAAKAKIQPAEE | 15400
ESDEPEQQRAKSQSRRRQSRGRGRKGGSESEAERSDVSASGGGRRNRQRQKKQ | 9900
ESDGGGEESGEGEERRKRRKKERLERRERKLKAKEEKKKKKSRGDGEAATKSQ | 25100
ESDILPRLLHAIRAELKEDISLKFAWRLYKLYLLCVYHLWKNVVLMIWYRRWI | 81700
ESEDEGRDTTHDSDNEGDGHDANHGSENEGEGHDTTHDSKIEGAGRDAIRGSH | 8090
ESEEEVAAGSSANGKKQSGTRDSSKRSKKSDSKSEAKRSDKAEGAAEKTAPES | 18500
ESEGDPEPQPAKSQSRRRQSRGRGRRGAESDSESVARSDVSATGGRRNRQRQK | 43500
ESEKAGGKRKQERRSRAGRGEGEGEERENRCRGEEGRGREGGGRREGKEGVGG | 39400
ESERHSRRRKSVKGKGKAKEVQKKRASKDKTSKRKGKGEKRKRGEEEGRSANK | 60200
ESEVAASENGKGKKEEEEKKRKKGLASTRQRNAAGKQSSSSKEEGKGARAYRS | 26100
ESEVAVVVHIGANTTAYQFLALCAMMAPMRDLFYAFGRVTIYALAPMFHAVRV | 73900
ESFKPAPAPKKEEAPKEEAKPAEEGAKAEEAPKEGENKEEAKPAEEPKRRSAS | 28400
